Results from PMC12476982.

Assays:
Experiment in all cases: fluorescence polarization
Conditions in all cases: FP: 10 nM Cy5 nucleosome in Buffer B (composition not in material) except 60 mM NaCl, quadratic fit, EMSA: 15 nM nucleosome, 15 min, room …
BRG1 (human) = tested on: BRG1 (human)
ncBAF (human) = tested on: ncBAF (human)
cBAF (ARID1A) (human) = tested on: cBAF (ARID1A) (human)
PBAF (human) = tested on: PBAF (human)

Work on Cy5 mononucleosome, 197-bp 601 DNA yielded a Kd (BRG1 (human)) of 115 nM, a Kd (ncBAF (human)) of 17 nM and a Kd (cBAF (ARID1A) (human)) of 45 nM. It also gave a Kd (PBAF (human)) of 82 nM.
